In patent US20110098212A1:

What was measured:
Experiment in all cases: cell-based or functional assay
[1] = molecular target: chemokine receptor CCR2 (human) (UniProt P41597)
[2] = molecular target: chemokine receptor CCR4 (human) (UniProt P51679)
[3] = molecular target: chemokine receptor CCR6 (human) (UniProt P51684)
[4] = molecular target: human chemokine receptor CCR5 (human) (UniProt P51681)
[5] = molecular target: chemokine receptor CCR8 (human) (UniProt P51685)

CCL2/MCP-1 (from UniProt P13500 24-99) (ligand)
calcium mobilisation, share of THP-1 cells responding [1]: > 95%

CCL17/TARC (from UniProt Q92583 24-94) (ligand)
EC50, calcium mobilisation in CCR4-CHO cells [2]: 0.24 nM
chemotaxis of HUT78 cells, concentration of maximal efficacy [2]: 1 nM

CCL20/MIP-3alpha (from UniProt P78556 27-96) (ligand)
EC50, calcium mobilisation in CCR6-CHO cells [3]: 1.27 nM

GS-U83A (from UniProt P52460 5-97) (ligand)
reduction of HIV-1 JRCSF infection of CEM-NKR-CCR5-luc cells at 1 uM [4]: 93%
blocking of CCL1 (1 nM) induced chemotaxis of HUT78 cells by 100 nM pre-treatment [5]: 10%

GSRIEGR-U83A (from UniProt P52460 5-97) (ligand)
blocking of CCL22 (10 nM) induced chemotaxis of HUT78 cells by 100 nM pre-treatment [2]: 25%
